{"source": "paper PMC11528121", "about": "“Structural basis of the bacterial flagellar motor rotational switching” (Cell Research, 2024)", "binders": {"B1": {"name": "FliN (natural protein, UniProt P26419 1-137, looked up)", "chain": "MSDMNNPSDENTGALDDLWADALNEQKATTTKSAADAVFQQLGGGDVSGAMQDIDLIMDIPVKLTVELGRTRMTIKELLRLTQGSVVALDGLAGEPLDILINGYLIAQGEVVVVADKYGVRITDIITPSERMRRLSR", "notes": "FliN, flagellar motor switch protein of the C ring, Salmonella Typhimurium LT2; FliN1, FliN2 and FliN3 are the three copies in one protomer; Subunit of the purified complex m8; 102 copies in the C ring; also called FliN1; FliN2"}, "B2": {"name": "FliF (natural protein, UniProt P15928 1-560, looked up)", "chain": "MSATASTATQPKPLEWLNRLRANPRIPLIVAGSAAVAIVVAMVLWAKTPDYRTLFSNLSDQDGGAIVAQLTQMNIPYRFANGSGAIEVPADKVHELRLRLAQQGLPKGGAVGFELLDQEKFGISQFSEQVNYQRALEGELARTIETLGPVKSARVHLAMPKPSLFVREQKSPSASVTVTLEPGRALDEGQISAVVHLVSSAVAGLPPGNVTLVDQSGHLLTQSNTSGRDLNDAQLKFANDVESRIQRRIEAILSPIVGNGNVHAQVTAQLDFANKEQTEEHYSPNGDASKATLRSRQLNISEQVGAGYPGGVPGALSNQPAPPNEAPIATPPTNQQNAQNTPQTSTSTNSNSAGPRSTQRNETSNYEVDRTIRHTKMNVGDIERLSVAVVVNYKTLADGKPLPLTADQMKQIEDLTREAMGFSDKRGDTLNVVNSPFSAVDNTGGELPFWQQQSFIDQLLAAGRWLLVLVVAWILWRKAVRPQLTRRVEEAKAAQEQAQVRQETEEAVEVRLSKDEQLQQRRANQRLGAEVMSQRIREMSDNDPRVVALVIRQWMSNDHE", "notes": "FliF, MS ring protein, Salmonella Typhimurium LT2; RBM1, RBM2, RBM3, β-collar, C-terminal region FliFC; Subunit of the purified complex m8; 34 copies in the MS ring; also called FliFC; MS ring protein"}, "B3": {"name": "FliE (natural protein, UniProt P26462 1-104, looked up)", "chain": "MAAIQGIEGVISQLQATAMAARGQDTHSQSTVSFAGQLHAALDRISDRQAAARVQAEKFTLGEPGIALNDVMADMQKASVSMQMGIQVRNKLVAAYQEVMSMQV", "notes": "FliE, rod protein of the flagellar basal body, Salmonella Typhimurium LT2; Subunit of the purified complex m8; 6 copies in the rod; also called FliE^6"}, "B4": {"name": "FlgC (natural protein)", "chain": "MALLNIFDIAGSALAAQSKRLNVAASNLANADSVTGPDGQPYRAKQVVFQVDAAPGQATGGVKVASVIESQAPEKLVYEPGNPLADANGYVKMPNVDVVGEMVNTMSASRSYQANIEVLNTVKSMMLKTLTLGQ", "notes": "FlgC, proximal rod protein of the flagellar basal body, Salmonella Typhimurium LT2; Subunit of the purified complex m8; 6 copies in the rod; also called FlgC^1; FlgC^6"}, "B5": {"name": "CheY D13K/Y106W (constitutively active double mutant) (natural protein)", "chain": "MADKELKFLVVDKFSTMRRIVRNLLKELGFNNVEEAEDGVDALNKLQAGGFGFIISDWNMPNMDGLELLKTIRADSAMSALPVLMVTAEAKKENIIAAAQAGASGWVVKPFTAATLEEKLNKIFEKLGM", "notes": "CheY, chemotaxis signal protein, gene amplified from genomic DNA of Salmonella enterica serovar Typhimurium LT2; double mutant D13K/Y106W; Tag linked through an HRV3C protease site; residues of the site may remain at the C-terminus after cleavage; Vector pET-14b; source: E. coli BL21 (DE3), purified (Streptactin column, PreScission protease digestion, Superdex 75); not shown: Twin-Strep-tag II, …"}, "B6": {"name": "FliG (natural protein, UniProt P0A1J9 1-331, looked up)", "chain": "MSNLSGTDKSVILLMTIGEDRAAEVFKHLSTREVQALSTAMANVRQISNKQLTDVLSEFEQEAEQFAALNINANEYLRSVLVKALGEERASSLLEDILETRDTTSGIETLNFMEPQSAADLIRDEHPQIIATILVHLKRSQAADILALFDERLRHDVMLRIATFGGVQPAALAELTEVLNGLLDGQNLKRSKMGGVRTAAEIINLMKTQQEEAVITAVREFDGELAQKIIDEMFLFENLVDVDDRSIQRLLQEVDSESLLIALKGAEPPLREKFLRNMSQRAADILRDDLANRGPVRLSQVENEQKAILLIVRRLAETGEMVIGSGEDTYV", "notes": "FliG, flagellar motor switch protein of the C ring, Salmonella Typhimurium LT2; domains FliGN, FliGM, FliGCN, FliGCC; Subunit of the purified complex m8; 34 copies in the C ring; also called FliGN; FliGM"}, "B7": {"name": "FliM (natural protein, UniProt P26418 1-334, looked up)", "chain": "MGDSILSQAEIDALLNGDSDTKDEPTPGIASDSDIRPYDPNTQRRVVRERLQALEIINERFARQFRMGLFNLLRRSPDITVGAIRIQPYHEFARNLPVPTNLNLIHLKPLRGTGLVVFSPSLVFIAVDNLFGGDGRFPTKVEGREFTHTEQRVINRMLKLALEGYSDAWKAINPLEVEYVRSEMQVKFTNITTSPNDIVVNTPFHVEIGNLTGEFNICLPFSMIEPLRELLVNPPLENSRHEDQNWRDNLVRQVQHSELELVANFADIPLRLSQILKLKPGDVLPIEKPDRIIAHVDGVPVLTSQYGTVNGQYALRVEHLINPILNSLNEEQPK", "notes": "FliM, flagellar motor switch protein of the C ring, Salmonella Typhimurium LT2; domains FliMN, FliMM, FliMC; Subunit of the purified complex m8; 34 copies in the C ring; also called FliMN; FliMM"}}, "key": {"FliM [1]": {"target": "B7", "test": "cryo-EM structure; basal body–hook complex in the default CCW state purified from S. Typhimurium ΔfliCD in TET buffer (10 mM Tris-HCl pH 8.0, 5 mM EDTA, 0.1% Triton X-100); C ring C34 map 5.9 Å, four protomers 4.0 Å, whole complex 7.4 Å, local maps 3.0–4.3 Å", "conditions": "both partners purified"}, "[2]": {"target": "the molecule itself", "test": "cryo-EM structure; basal body–hook complex in the default CCW state purified from S. Typhimurium ΔfliCD in TET buffer (10 mM Tris-HCl pH 8.0, 5 mM EDTA, 0.1% Triton X-100); C ring C34 map 5.9 Å, four protomers 4.0 Å, whole complex 7.4 Å, local maps 3.0–4.3 Å"}, "FliF [3]": {"target": "B2", "test": "cryo-EM structure; basal body–hook complex in the default CCW state purified from S. Typhimurium ΔfliCD in TET buffer (10 mM Tris-HCl pH 8.0, 5 mM EDTA, 0.1% Triton X-100); C ring C34 map 5.9 Å, four protomers 4.0 Å, whole complex 7.4 Å, local maps 3.0–4.3 Å", "conditions": "both partners purified"}, "FliM [4]": {"target": "B7", "test": "cryo-EM structure; 5 μL purified CCW basal body–hook complex mixed with 1 μL CheY** (2 mg/mL), 15 min at room temperature, 1.5 h on ice; CW state; C ring C34 map 5.6 Å, four protomers 4.4 Å, whole complex 4.3 Å, local maps 2.8–3.8 Å", "conditions": "both partners purified"}, "[5]": {"target": "T1, C ring-containing flagellar basal body–hook complex in the default CCW state (Salmonella enterica serovar Typhimurium …, UniProt P0A1J9 1-331; P26418 1-334; P26419 1-137; P15928 1-560; P54700 22-245; P54702 …)", "T1 construct": "FliG, C ring, Salmonella Typhimurium LT2; FliM, C ring, Salmonella Typhimurium LT2; FliN, C ring, Salmonella Typhimurium LT2; FliF, MS ring, Salmonella Typhimurium LT2; FliP, export apparatus, Salmonella Typhimurium LT2; FliR, export apparatus, Salmonella Typhimurium LT2; FliQ, export apparatus, Salmonella Typhimurium LT2; FliE, rod, Salmonella Typhimurium LT2; FlgB, rod, Salmonella Typhimurium …", "test": "cryo-EM structure; 5 μL purified CCW basal body–hook complex mixed with 1 μL CheY** (2 mg/mL), 15 min at room temperature, 1.5 h on ice; CW state; C ring C34 map 5.6 Å, four protomers 4.4 Å, whole complex 4.3 Å, local maps 2.8–3.8 Å", "conditions": "both partners purified"}, "FliF [6]": {"target": "B2", "test": "cryo-EM structure; 5 μL purified CCW basal body–hook complex mixed with 1 μL CheY** (2 mg/mL), 15 min at room temperature, 1.5 h on ice; CW state; C ring C34 map 5.6 Å, four protomers 4.4 Å, whole complex 4.3 Å, local maps 2.8–3.8 Å", "conditions": "both partners purified"}}, "data": [{"binder": "B1", "values": [{"measurement": "stoichiometry N", "setting": "FliM [1]", "result": 3}, {"measurement": "binding result", "setting": "[2]", "result": "binds"}]}, {"binder": "B2", "values": [{"measurement": "stoichiometry N", "setting": "[2]", "result": 34}]}, {"binder": "B3", "values": [{"measurement": "binding result", "setting": "FliF [3]", "result": "binds"}]}, {"binder": "B4", "values": [{"measurement": "binding result", "setting": "FliF [3]", "result": "binds"}]}, {"binder": "B5", "values": [{"measurement": "binding result", "setting": "FliM [4]", "result": "binds"}, {"measurement": "stoichiometry N", "setting": "[5]", "result": 34}]}, {"binder": "B6", "values": [{"measurement": "binding result", "setting": "FliF [6]", "result": "binds"}, {"measurement": "stoichiometry N", "setting": "FliM [1]", "result": 1}, {"measurement": "stoichiometry N", "setting": "[2]", "result": 34}]}, {"binder": "B7", "values": [{"measurement": "stoichiometry N", "setting": "[2]", "result": 34}]}]}
